# Assay results taken from patent US20080292704A1 (published 2008).
# B1: recombinant FcγRI ligand binding domain, 6xHis tagged (receptor)
# chain: QVDTTKAVITLQPPWVSVFQEETVTLHCEVLHLPGSSSTQWFLNGTATQTSTPSYRITSASVNDSGEYRCQRGLSGRSDPIQLEIHRGWLLLQVSSRVFTEGEPLALRCHAWKDKLVYNVLYYRNGKAFKFFHWNSNLTILKTNISHNGTYHCSGMGKHRYTSAGISVTVKELFPAPVLNASVTSPLLEGNLVTLSCETKLLLQRPGLQLYFSFYMGSKTLRGRNTSSEYQILTARREDSGLYWCEAATEDGNVLKRSPELELQVLGLQLPTPVWFH
# B2: recombinant FcγRIIb ligand binding domain, 6xHis tagged (receptor)
# chain: TPAAPPKAVLKLEPQWINVLQEDSVTLTCRGTHSPESDSIQWFHNGNLIPTHTQPSYRFKANNNDSGEYTCQTGQTSLSDPVHLTVLSEWLVLQTPHLEFQEGETIVLRCHSWKDKPLVKVTFFQNGKSKKFSRSDPNFSIPQANHSHSGDYHCTGNIGYTLYSSKPVTITVQAP
# B3: recombinant FcγRIIa ligand binding domain, 6xHis tagged (receptor)
# chain: QAAAPPKAVLKLEPPWINVLQEDSVTLTCQGARSPESDSIQWFHNGNLIPTHTQPSYRFKANNNDSGEYTCQTGQTSLSDPVHLTVLSEWLVLQTPHLEFQEGETIMLRCHSWKDKPLVKVTFFQNGKSQKFSHLDPTFSIPQANHSHSGDYHCTGNIGYTLFSSKPVTITVQVPSMGSSSPMG
# Assays:
# HSA1Fc = biological target: T1, HSA1Fc (human, UniProt P02768 25-221); test: ELISA on coated recombinant receptor, Protein G-HRPO detection
# T1 construct: range 1-197; also called Fc fusion protein; Ig fusion protein
# T1 sequence (P02768 other isoform, or with tags, fused parts or gaps): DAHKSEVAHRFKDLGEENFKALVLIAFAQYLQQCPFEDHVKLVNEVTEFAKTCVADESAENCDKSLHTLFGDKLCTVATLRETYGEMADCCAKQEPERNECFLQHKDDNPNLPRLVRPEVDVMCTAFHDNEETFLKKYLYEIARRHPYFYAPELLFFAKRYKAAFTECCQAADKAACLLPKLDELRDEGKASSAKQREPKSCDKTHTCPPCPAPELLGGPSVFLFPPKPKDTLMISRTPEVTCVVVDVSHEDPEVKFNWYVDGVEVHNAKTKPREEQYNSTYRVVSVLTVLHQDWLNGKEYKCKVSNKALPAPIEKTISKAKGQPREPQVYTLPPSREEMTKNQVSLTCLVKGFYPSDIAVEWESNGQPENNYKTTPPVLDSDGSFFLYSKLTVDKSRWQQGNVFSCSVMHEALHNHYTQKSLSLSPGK
# HSA1R4 [1] = biological target: T2, HSA1R4 (human, UniProt P02768 25-221); test: ELISA on coated recombinant receptor (2 µg/mL), HRPO-Protein G detection
# T2 construct: range 1-197; also called R4 ligand; HCH2 polymer
# T2 sequence (P02768 other isoform, or with tags, fused parts or gaps): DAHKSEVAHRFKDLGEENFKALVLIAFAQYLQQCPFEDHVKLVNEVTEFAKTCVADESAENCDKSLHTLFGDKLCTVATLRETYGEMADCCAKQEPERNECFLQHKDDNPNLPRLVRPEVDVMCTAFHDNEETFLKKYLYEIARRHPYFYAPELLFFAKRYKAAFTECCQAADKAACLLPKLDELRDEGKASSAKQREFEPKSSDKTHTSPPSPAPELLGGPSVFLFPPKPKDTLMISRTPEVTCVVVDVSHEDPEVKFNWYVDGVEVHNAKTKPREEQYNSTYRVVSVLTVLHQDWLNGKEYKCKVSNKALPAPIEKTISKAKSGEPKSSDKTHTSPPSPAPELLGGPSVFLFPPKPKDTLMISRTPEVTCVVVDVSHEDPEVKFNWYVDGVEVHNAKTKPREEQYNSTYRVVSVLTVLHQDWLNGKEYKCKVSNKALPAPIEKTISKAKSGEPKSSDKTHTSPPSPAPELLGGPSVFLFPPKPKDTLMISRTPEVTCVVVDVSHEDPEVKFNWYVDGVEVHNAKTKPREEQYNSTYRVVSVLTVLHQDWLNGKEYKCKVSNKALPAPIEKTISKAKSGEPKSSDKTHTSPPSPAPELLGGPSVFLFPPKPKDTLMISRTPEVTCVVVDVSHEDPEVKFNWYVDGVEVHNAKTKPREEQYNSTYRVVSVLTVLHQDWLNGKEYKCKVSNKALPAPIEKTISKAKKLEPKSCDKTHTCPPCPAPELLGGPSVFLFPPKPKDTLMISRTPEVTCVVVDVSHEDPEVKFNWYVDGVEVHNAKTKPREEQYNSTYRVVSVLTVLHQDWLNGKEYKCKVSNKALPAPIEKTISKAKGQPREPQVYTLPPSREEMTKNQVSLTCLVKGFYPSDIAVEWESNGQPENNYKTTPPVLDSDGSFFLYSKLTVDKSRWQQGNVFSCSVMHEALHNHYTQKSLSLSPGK
# HSA1R4 [2] = biological target: T2, HSA1R4; test: ELISA on coated recombinant receptor (4 µg/mL), HRPO-Protein G detection
binder,measurement,setting,value
B1,binding result,HSA1Fc,binds
same,binding result,HSA1R4 [1],binds
B2,binding result,HSA1Fc,no binding (tested: 20 ug/mL (highest concentration tested))
same,binding result,HSA1R4 [2],binds
B3,binding result,HSA1Fc,no binding (tested: 20 ug/mL (highest concentration tested))
